Source: the supplement of paper PMC10567573

B1: ZNF649 (parent)
chain: LVAHQRYHTGKTPFVCPECGQPCS
B2: SMARCE1 (parent)
chain: YHNSPAYLAYINAKSRAEAALEEE

Variants of: B1
Experiment: protein stability index of a GFP-peptide fusion (GPS, HEK-293T) (PSI 1-6); higher = more stable
Details: c terminus: a fixed tail appended
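Further: lentivirally expressed fusions sorted by FACS into six bins by GFP to DsRed ratio, PSI derived from sequencing read proportions per bin multiplied by bin number.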

Protein stability index, by site and new letter:
P17: R 2.26; L 2.26; E 3.16; D 3.35; H 2.86; T 3.04; K 3.37; C 2.98; Q 3.51; V 2.59; N 3.48; S 3.37; A 2.84; M 2.77; F 2.16; I 2.73; Y 2.48; G 2.92; W 2.37
S24: F 3.71; Y 2.62; Q 3.12; I 2.77; D 3.76; C 3.13; P 3.57; M 2.67; K 3.23; W 3.08; H 3.23; G 3.54; A 2.94; E 3.36; V 3.13; N 2.97; L 2.82; R 2.68; T 3.36
E18: H 2.38; L 2.66; P 1.91; S 3.11; C 2.82; F 2.56; R 2.18; W 2.7; I 2.61; T 2.4; M 2.58; A 2.99; K 2.54; Q 3.31; N 2.34; D 3.18; G 1.8; Y 2.27; V 2.31
C16: V 2.58; T 2.27; Y 2.37; W 1.86
C23: M 2.54; F 2.49; P 3.47; Q 2.73; Y 2.31; R 3.19; N 3.06; A 3.27; W 2.42; G 2.87; I 2.98; V 2.99; S 2.56; E 3.09; L 2.67; K 3.12; D 3.72; T 3.35; H 3.15
P22: K 3.6; V 3.5; N 3.77; M 2.9; S 3.53; A 3.58; G 3.35; W 2.38; C 3.85; T 3.33; E 3.75; H 3.41; R 3.28; Q 4.03; I 3.25; L 3.13; F 3.1; D 3.69; Y 3.84
Q21: H 3.09; G 3.93; P 2.9; Y 2.77; A 3.06; M 2.44; S 2.86; K 3.19; I 2.58; D 3.67; C 3.08; L 2.74; R 2.62; F 2.21; W 2.97; T 3.24; V 3.5; N 2.66; E 3.59
G20: T 3.11; N 3.25; K 2.86; Y 2.52; W 2.55; F 2.85; I 2.27; D 3.48; E 3.07; S 3.13; H 2.88; Q 3.14; C 2.74; A 3.06; L 2.59; V 2.47; R 2.52; M 3.03; P 3.12
C19: M 2.58; I 2.58; A 2.89; T 3.26; F 2.06; E 3.03; W 1.81; G 3.05; Y 2.08; L 2.39; R 2.51; K 3.14; H 2.92; N 2.92; Q 2.92; P 3.21; V 2.42; D 3.63; S 3.15

Variants of: B2
Experiment: as above
Details: c terminus: a fixed tail appended

Protein stability index: each site, then its substitutions
S15: N 2.29; V 2.26; H 2.59; Y 1.62; C 3.03; P 1.61; A 2.53
A20: C 2.27; E 2.32; K 2.71; V 2.56; W 1.93; L 2.15
E18: L 1.61; K 3.05; S 2; Y 2.15; W 2.76; T 1.82; F 2.37; N 2.21; V 2.76; I 3.18
Y10: T 3.44; W 2.28; K 3.03; A 3.76; Q 2.19; G 1.75; H 1.68
L21: K 2.51; E 1.84; I 3.51; D 1.88; N 2.46; V 2.67; C 2.89; Y 1.94; M 2.04
A6: E 2.58; H 2.3; F 2.06; D 2.12; I 2.61; P 1.94; K 2.22; G 2.37
L8: H 2.12; K 3.83; M 2.23; D 2.22; A 3.39; Q 3.47; T 2.81; S 3.08; E 1.8; I 3.09; G 1.69
Y1: G 4.65; V 4.95; N 4.85; Q 5.29; I 4.78; F 2.02; C 4.74; L 4.97
Y7: M 2.4; R 2.76; G 2.31; S 2.76; D 3.12; K 3; P 2.98; N 2.31; T 2.95
S4: H 1.91; P 1.91; G 2.45; R 2.19; D 3.31
H2: M 1.96; V 2.84; W 2.66; I 2.2
P5: G 3.04; W 2.98; F 3.01; V 3.69; M 2.65; D 2.15; K 2.06; A 2.76
E22: Q 1.91; S 2.41; W 2.29; Y 1.9; G 2.67; V 2.73; T 2.36; M 2.01
A19: Y 2.46; G 2.56; Q 2.12; F 2.31; S 2.06; T 2.41; N 2.43; H 2.02
I11: V 2.33; Y 3.27; R 2.29; P 3.06; W 2.35; T 2.99
A13: N 1.9; I 2.49; M 3.18; S 1.83; W 1.64; K 2.52; F 2.06
N12: R 2.04; A 1.77; M 2.33; L 2.1; H 3.13
K14: R 2.51; F 2.35; Q 2.55; I 2.81; T 2.86; V 2.15; P 1.95; M 1.57
R16: D 2.4; L 2.56; A 2.04; H 2.15; P 2.12
A17: K 1.53; L 2.04; Y 2.05; Q 3.13; E 1.75; M 2.23
A9: N 2.39; Q 1.84; P 3.18; F 1.94; K 1.68; G 2.19; E 1.56; S 2.96; W 2.21; C 1.77; D 1.42; T 2.24; I 2.81
E24: C 2.38; H 1.91; N 2.47; Y 1.71; A 2.12
N3: R 2.26; K 2.89; T 2.19; C 1.34; E 2.22; A 2.05; D 1.89
E23: V 2.44; F 2.31; L 1.59; A 2.34; Y 1.58; C 2.79; D 1.54; N 1.57
